In patent publication US7407766:

Biological target: full-length mouse Plexin-A1 protein (aa1 to 1894) (mouse) (UniProt P70206)
Assay: AP activity bound to Plexin-A1 expressing L cells, non-specific binding to parent L cells subtracted; Scatchard plot

full-length mouse Plexin-A1 protein (aa1 to 1894) (mouse), sequence (P70206 28-1894 limits assumed): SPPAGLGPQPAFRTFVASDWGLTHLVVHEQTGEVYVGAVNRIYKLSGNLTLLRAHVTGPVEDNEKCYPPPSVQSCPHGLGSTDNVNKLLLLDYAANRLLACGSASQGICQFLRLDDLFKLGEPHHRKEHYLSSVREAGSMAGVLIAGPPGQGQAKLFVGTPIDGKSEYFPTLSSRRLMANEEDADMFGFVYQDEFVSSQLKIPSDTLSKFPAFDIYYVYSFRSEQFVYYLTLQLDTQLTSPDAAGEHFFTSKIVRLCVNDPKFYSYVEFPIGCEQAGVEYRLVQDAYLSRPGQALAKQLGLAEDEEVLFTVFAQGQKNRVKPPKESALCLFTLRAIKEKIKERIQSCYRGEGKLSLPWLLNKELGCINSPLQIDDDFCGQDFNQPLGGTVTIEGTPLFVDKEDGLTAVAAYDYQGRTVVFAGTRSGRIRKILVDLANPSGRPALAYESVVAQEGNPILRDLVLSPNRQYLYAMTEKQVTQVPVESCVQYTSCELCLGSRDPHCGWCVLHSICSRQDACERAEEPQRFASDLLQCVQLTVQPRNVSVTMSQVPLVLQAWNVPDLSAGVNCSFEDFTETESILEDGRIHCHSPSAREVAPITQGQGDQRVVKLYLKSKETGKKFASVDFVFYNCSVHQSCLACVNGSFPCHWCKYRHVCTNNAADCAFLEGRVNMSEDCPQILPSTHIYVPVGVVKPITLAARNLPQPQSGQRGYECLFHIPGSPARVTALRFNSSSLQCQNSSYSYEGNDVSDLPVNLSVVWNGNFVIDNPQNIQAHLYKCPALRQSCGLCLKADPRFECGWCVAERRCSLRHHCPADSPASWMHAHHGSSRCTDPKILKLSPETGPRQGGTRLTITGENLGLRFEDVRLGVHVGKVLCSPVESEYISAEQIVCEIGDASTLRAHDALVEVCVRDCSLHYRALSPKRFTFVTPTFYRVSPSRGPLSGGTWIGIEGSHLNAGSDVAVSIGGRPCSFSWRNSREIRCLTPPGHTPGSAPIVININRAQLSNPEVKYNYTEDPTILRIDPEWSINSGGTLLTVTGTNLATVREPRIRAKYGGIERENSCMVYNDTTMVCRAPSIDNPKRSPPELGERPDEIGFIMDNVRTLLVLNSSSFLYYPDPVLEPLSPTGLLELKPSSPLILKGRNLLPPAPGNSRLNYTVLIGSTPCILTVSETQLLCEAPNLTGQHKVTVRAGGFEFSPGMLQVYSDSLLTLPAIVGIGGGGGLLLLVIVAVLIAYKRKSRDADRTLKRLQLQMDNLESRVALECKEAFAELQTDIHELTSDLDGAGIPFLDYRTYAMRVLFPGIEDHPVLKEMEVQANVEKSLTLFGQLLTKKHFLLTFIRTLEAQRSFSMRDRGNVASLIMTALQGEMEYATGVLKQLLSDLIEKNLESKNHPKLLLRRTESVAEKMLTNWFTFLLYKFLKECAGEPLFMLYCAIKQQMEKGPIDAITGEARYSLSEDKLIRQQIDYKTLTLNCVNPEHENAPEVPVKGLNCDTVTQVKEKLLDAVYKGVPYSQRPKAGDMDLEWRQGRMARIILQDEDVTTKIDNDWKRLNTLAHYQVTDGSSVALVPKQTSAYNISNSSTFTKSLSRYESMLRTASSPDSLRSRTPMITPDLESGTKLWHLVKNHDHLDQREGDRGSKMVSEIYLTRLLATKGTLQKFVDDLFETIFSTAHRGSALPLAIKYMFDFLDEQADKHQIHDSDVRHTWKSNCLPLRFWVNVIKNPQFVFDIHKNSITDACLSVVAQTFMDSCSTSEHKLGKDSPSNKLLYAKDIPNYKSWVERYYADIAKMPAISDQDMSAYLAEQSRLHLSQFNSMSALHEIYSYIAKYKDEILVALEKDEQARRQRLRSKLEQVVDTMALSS

For “Sema6C-alkaline phosphatase fusion protein (Sema6C-S-AP) (from UniProt Q9WTL3 24-599; P05187 23-511) (ligand)”, the Kd was 16.5 nM.
